Measurements: patent publication US20240272170A1
Values belong to the binder of their own block, whether it stands above or below them.

Columns and labels:
[1] = biological target: T1, … after cleavage to N-terminal arginine (RLIFAG); assay: on-chip dynamic sequencing of …, upper trace
T1 sequence (peptide, C-terminal azidolysine linked to DNA-streptavidin (p-0304)): RLIFAG

[2] = biological target: T2, RA peptide (X…-FITC, X = R); assay: fluorescence polarization titration, PS691 0-3000 nM
T2 sequence (peptide, FITC on the C-terminal Lys): RAKLDEESILKQK

[3] = biological target: T1, … after cleavage to N-terminal arginine (RLIFAG); assay: on-chip dynamic sequencing of …, lower trace
[4] = biological target: peptide …; assay: single-molecule dynamic sequencing on chip
[5] = biological target: peptide RLp…; assay: single-molecule dynamic sequencing on chip
[6] = biological target: T3, synthetic peptide …; assay: on-chip dynamic sequencing of …, example trace
T3 sequence (peptide): RLVFAYPDDD

[7] = biological target: T4, synthetic peptide …; assay: on-chip dynamic sequencing of …, example trace; remark: listed apart in the source
T4 sequence (peptide): RLAFSALGAADDD

[8] = biological target: T5, synthetic peptide …; assay: on-chip dynamic sequencing of …, example trace; remark: listed apart in the source
T5 sequence (peptide): RLIFAYPDDD

[9] = biological target: T6, synthetic peptide …; assay: on-chip dynamic sequencing of …, example trace; remark: listed apart in the source
T6 sequence (peptide): RLAFAYPDDD

[10] = biological target: T7, … after cleavage to N-terminal arginine (…); assay: on-chip dynamic sequencing of …, example trace
T7 sequence (peptide): RLAASFAAQQYPDDD

[11] = biological target: T1, … after cleavage to N-terminal arginine (RLIFAG); assay: on-chip dynamic sequencing of …, example trace
[12] = biological target: T8, synthetic peptide …; assay: on-chip dynamic sequencing of …, example trace; remark: listed apart in the source
T8 sequence (peptide): RLMFAYPDDD

peptide RLMoFAYPDDD = biological target: T9, peptide RLMoFAYPDDD; assay: on-chip dynamic sequencing of RLMoFAYPDDD, example trace
T9 sequence (peptide, M3 = methionine sulfoxide (Mo)): RLMFAYPDDD

[13] = biological target: peptide RLp…; assay: on-chip dynamic sequencing of RLp[..] with PS691, PS610, PS961; one example trace, segment at about 3-18 min, BR=0.43
[14] = biological target: HL Peptide (stopped-flow); assay: stopped-flow rapid kinetics
[15] = biological target: RL Peptide (stopped-flow); assay: stopped-flow rapid kinetics
[16] = biological target: RA Peptide (stopped-flow); assay: stopped-flow rapid kinetics
QP304-RAIFAG peptide = biological target: T10, QP304-RAIFAG peptide; assay: single-molecule on-chip recognition run
T10 sequence (peptide): RAIFAG

[17] = biological target: T3, synthetic peptide …; assay: on-chip dynamic sequencing of …, kinetic signature plot
[18] = biological target: T4, synthetic peptide …; assay: as above; remark: listed apart in the source
[19] = biological target: T5, synthetic peptide …; assay: as above; remark: listed apart in the source
[20] = biological target: T6, synthetic peptide …; assay: as above; remark: listed apart in the source
[21] = biological target: T7, … after cleavage to N-terminal arginine (…); assay: as above
[22] = biological target: T1, … after cleavage to N-terminal arginine (RLIFAG); assay: as above
[23] = biological target: peptide …; assay: on-chip dynamic sequencing of [..] with PS691, PS610, PS961; one example trace, segment at about 107-113 min, BR=0.46
[24] = biological target: T4, synthetic peptide …; assay: on-chip dynamic sequencing of a mixture of … and … on one chip, signature of …
[25] = biological target: T1, … after cleavage to N-terminal arginine (RLIFAG); assay: as above
[26] = biological target: T11, … after cleavage to N-terminal arginine (RLIFAGK); assay: on-chip dynamic sequencing of the ubiquitin digest peptide …, kinetic signature plot
T11 sequence (peptide): RLIFAGK

[27] = biological target: T2, RA peptide (X…-FITC, X = R); assay: fluorescence polarization titration, recognizer 0-3000 nM, labeled peptide fixed
[28] = biological target: peptide with N-terminal RLA; assay: single-molecule on-chip recognition of immobilized peptide, dye-labeled recognizer
[29] = biological target: EFIAWLV after cleavage to N-terminal leucine (LV); assay: on-chip dynamic sequencing of EFIAWLV, example trace
[30] = biological target: RLp… after cleavage to N-terminal leucine (Lp…); assay: on-chip dynamic sequencing of RLp[..] with PS691, PS610, PS961; one example trace, segment at about 20-52 min, BR=0.28
[31] = biological target: EFIAWLV after cleavage to N-terminal leucine (LV); assay: on-chip dynamic sequencing of EFIAWLV, kinetic signature plot
[32] = biological target: EFIAWLVK after cleavage to N-terminal leucine (LVK); assay: on-chip dynamic sequencing of the GLP-1 digest peptide EFIAWLVK, kinetic signature plot
[33] = substrate: I of … / RLp… (IAYPDDD); assay: on-chip dynamic sequencing of RLp[..] with PS691, PS610, PS961; one example trace, segment at about 143-155 min, BR=0.25
[34] = biological target: … after cleavage to N-terminal leucine (…); assay: on-chip dynamic sequencing of [..] with PS691, PS610, PS961; one example trace, segment at about 113-128 min, BR=0.31
[35] = substrate: I of … / RLp… (IAYPDDD); assay: on-chip dynamic sequencing of [..] with PS691, PS610, PS961; one example trace, segment at about 247-277 min, BR=0.27
[36] = biological target: … after cleavage to N-terminal leucine (…); assay: single-molecule dynamic sequencing on chip
[37] = biological target: RLp… after cleavage to N-terminal leucine (Lp…); assay: single-molecule dynamic sequencing on chip
[38] = biological target: peptide with N-terminal VAA; assay: single-molecule on-chip recognition of immobilized peptide, dye-labeled recognizer
[39] = biological target: peptide with N-terminal IAA; assay: as above
[40] = biological target: peptide with N-terminal LAA; assay: as above

PD printed above the recognition segment (one trace) [1]: 0.21 s
Kd [2]: 369 nM
PD printed above the recognition segment (one trace) [3]: 0.34 s
RS mean pulse duration (PD) [4]: 0.9 s
RS mean pulse duration (PD) [5]: 0.45 s
PD printed above the recognition segment (one trace) [6]: 0.27 s
PD printed above the recognition segment (one trace) [7]: 0.17 s
PD printed above the recognition segment (one trace) [8]: 0.29 s
PD printed above the recognition segment (one trace) [9]: 0.25 s
PD printed above the recognition segment (one trace) [10]: 0.17 s
PD printed above the recognition segment (one trace) [11]: 0.29 s
PD printed above the recognition segment (one trace) [12]: 0.27 s
PD printed above the recognition segment (one trace) (peptide RLMoFAYPDDD): 0.25 s
PW (pulse width of the segment in the example trace) [13]: 0.54
koff [14]: 51.4 s⁻¹
koff [15]: 19.7 s⁻¹
koff [16]: 69.4 s⁻¹
kon [16]: 2.6e+07 M⁻¹ s⁻¹
pulse duration (QP304-RAIFAG peptide): 0.16 s
median PD (kinetic signature) [17]: 0.27 s
median PD (kinetic signature) [18]: 0.19 s
median PD (kinetic signature) [19]: 0.29 s
median PD (kinetic signature) [20]: 0.22 s
median PD (kinetic signature) [21]: 0.17 s
median PD (kinetic signature) [22]: 0.24 s
PW (pulse width of the segment in the example trace) [23]: 0.9
median PD (kinetic signature) [24]: 0.21 s
median PD (kinetic signature) [25]: 0.26 s
median PD (kinetic signature) [26]: 0.31 s
Kd [27]: 369 nM
median pulse duration (PD) [28]: 0.23 s
B1: PS691 (designed binder, from a related filing)
chain: MHSKFSHAGRICGAKFKVGEPIYRCKECSFDDTCVLCVNCFNPKDHTGHHVYTTICTEFNNGICDCGDKEAWNHTLFCKAEEGGSAGSAAGSGEFMHSKFSHAGRICGAKFKVGEPIYRCKECSFDDTCVLCVNCFNPKDHTGHHVYTTICTEFNNGICDCGDKEAWNHTLFCKAEEGGGSHHHHHHHHHHGGGSGGGSGGGSGLNDFFEAQKIEWHEGGGSGGGSGGGSGLNDFFEAQKIEWHE

PD printed above the recognition segment (one trace) [29]: 5.92 s
PW (pulse width of the segment in the example trace) [30]: 3.57
median PD (kinetic signature) [31]: 5.3 s
median PD (kinetic signature) [32]: 2.99 s
PW (pulse width of the segment in the example trace) [33]: 0.24
PW (pulse width of the segment in the example trace) [34]: 2.93
PW (pulse width of the segment in the example trace) [35]: 0.2
RS mean pulse duration (PD) [36]: 2.45 s
RS mean pulse duration (PD) [37]: 3.4 s
median pulse duration (PD) [38]: 0.21 s
median pulse duration (PD) [39]: 0.28 s
median pulse duration (PD) [40]: 1.21 s
B2: PS961 (designed binder)
chain: MPTAASATESAIEDTPAPARPEVDGRTKPKRQPRYHVVLWDDDDHTYQYVVVMLRSLFGHPPSRGYRMAKEMDTQGRVIVLTTTREHAELKRDQIHAFGRDRLLARSKGSMKASIEAEE
